According to US6858382 (GENERAL HOSPITAL, dated 2005):

Target: T1, TetR-RasV12A186 (bacterial transposon Tn10, UniProt P04483 1-207; P01112 1-189)
T1 construct: Yeast two-hybrid bait
Assay: yeast two-bait interaction trap, TetOp-URA3 reporter (growth without uracil)

T1 sequence (P04483 1-207, tags or fused parts left off): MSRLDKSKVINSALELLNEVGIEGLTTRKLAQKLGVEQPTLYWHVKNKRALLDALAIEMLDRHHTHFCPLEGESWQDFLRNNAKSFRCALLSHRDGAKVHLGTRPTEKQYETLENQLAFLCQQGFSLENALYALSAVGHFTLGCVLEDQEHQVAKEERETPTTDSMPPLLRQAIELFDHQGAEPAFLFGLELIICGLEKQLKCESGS

binding result: no binding
B1: B42-Mxi1 (other, UniProt P50539 1-228, looked up, not shown: large carriers)
chain: MERVKMINVQRLLEAAEFLERRERECEHGYASSFPSMPSPRLQHSKPPRRLSRAQKHSSGSSNTSTANRSTHNELEKNRRAHLRLCLERLKVLIPLGPDCTRHTTLGLLNKAKAHIKKLEEAERKSQHQLENLEREQRFLKWRLEQLQGPQEMERIRMDSIGSTISSDRSDSEREEIEVDVESTEFSHGEVDNISTTSISDIDDHSSLPSIGSDEGYSSASVKLSFTS
notes: Yeast two-hybrid prey, used as a positive control with Max
